Data taken from patent US20050137130A1, “Medical treatment” (priority 2001, published 2005).

System: activated human CD4+ T cells
Experiment: Cytokine production (ELISA) by human CD4+ T cells stimulated with anti-CD3/CD28 beads and Delta1 beads, with added soluble protein
Type: cell-based
Details: increasing amounts of soluble protein in culture medium, 3 days
Description: M450 Streptavidin Dynabead™ magnetic beads (Dynal, USA) were coated with an anti-human-IgG4 biotinylated monoclonal antibody (BD Bioscience, 555879) by rotating them in the presence of the antibody for 30 minutes at room temperature. Beads were washed three times with PBS (1 ml). They were further incubated with hDelta1-hIgG4 (see Example 1 above) for 2 hours at room temperature and then washed three times with PBS (1 ml).
Human peripheral blood mononuclear cells (PBMC) were purified from blood using Ficoll-Paque separation medium (Pharmacia). Briefly, 28 ml of blood were overlaid on 21 ml of Ficoll-Paque separation medium and centrifuged at 18-20° C. for 40 minutes at 400 g. PBMC were recovered from the interface and washed 3 times before use for CD4+ T cell purification.
The CD4+ T cells were incubated in triplicates in a 96-well-plate (flat bottom) at 10^5 CD4/well/200 μl in RPMI medium containing 10% FCS, glutamine, penicillin, streptomycin and β2-mercaptoethanol.
Cytokine production was induced by stimulating the cells with anti-CD3/CD28 T cell expander beads from Dynal at a 1:1 ratio (bead/cell) in the presence of beads coated with hDelta1-IgG4Fc fusion protein (Example 1 above) at a 5:1 ratio (beads/cell). In some wells, increasing amounts of soluble hdelta1-IgG4Fc fusion protein were also added.
(§1) The supernatants were removed after 3 days of incubation at 37° C./5% CO2/humidified atmosphere and cytokine production was evaluated by ELISA using Pharmingen kits OptEIA Set human IL10 (catalog No. 555157), OptEIA Set human IL-5 (catalog No. 555202) for IL-10 and IL-5 respectively according to the manufacturer's instructions.
Human peripheral blood mononuclear cells (PBMC) were purified from blood using Ficoll-Paque separation medium (Pharmacia). […]
as §1, with “(Catalog” for “(catalog”, “instructions. […]” for “instructions.”

B1: rat Notch1-hIgG1Fc: R&D Systems Catalog No 1057-TK; 12 amino terminal EGF domains of rat Notch-1 fused to the Fc region of human IgG (protein)
chain: ARGLRCSQPSGTCLNGGRCEVANGTEACVCSGAFVGQRCQDPSPCLSTPCKNAGTCYVVDHGGIVDYACSCPLGFSGPLCLTPLANACLANPCRNGGTCDLLTLTEYKCRCPPGWSGKSCQQADPCASNPCANGGQCLPFESSYICGCPPGFHGPTCRQDVNECSQNPGLCRHGGTCHNEIGSYRCACRATHTGPHCELPYVPCSPSPCQNGGTCRPTGDTTHECACLPGFAGQNCEENVDDCPGNNCKNGGACVDGVNTYNCRCPPEWTGQYCTEDVDECQLMPNACQNGGTCHNSHGGYNCVCVNGWTGEDCSENIDDCASAACFQGATCHDRVASFYCECPHGRTGLLCHLNDACISNPCNEGSNCDTNPVNGKAICTCPSGYTGPACSQDVDECALGANPCEHAGKCLNTLGSFECQCLQGYTGPRCEIDVNECISNPCQNDATCLDQIGEFQCICMPGYEGVYCEIEGRMD
modifications: left off: a dimerising Fc or GST
notes: R&D Systems Catalog No 1057-TK; 12 amino terminal EGF domains of rat Notch-1 fused to the Fc region of human IgG
- effect of added soluble protein on the IL-10 enhancement by bead-immobilised Delta1: inhibited
